Data: patent US20240309115A1 (MERUS N V, published 2024)

T1: LAG-3 on PD-1 and LAG-3 expressing Jurkat T cells (effector cells of the PD-1/LAG-3 reporter assay) (UniProt P18627 23-525)
T1 sequence (looked up): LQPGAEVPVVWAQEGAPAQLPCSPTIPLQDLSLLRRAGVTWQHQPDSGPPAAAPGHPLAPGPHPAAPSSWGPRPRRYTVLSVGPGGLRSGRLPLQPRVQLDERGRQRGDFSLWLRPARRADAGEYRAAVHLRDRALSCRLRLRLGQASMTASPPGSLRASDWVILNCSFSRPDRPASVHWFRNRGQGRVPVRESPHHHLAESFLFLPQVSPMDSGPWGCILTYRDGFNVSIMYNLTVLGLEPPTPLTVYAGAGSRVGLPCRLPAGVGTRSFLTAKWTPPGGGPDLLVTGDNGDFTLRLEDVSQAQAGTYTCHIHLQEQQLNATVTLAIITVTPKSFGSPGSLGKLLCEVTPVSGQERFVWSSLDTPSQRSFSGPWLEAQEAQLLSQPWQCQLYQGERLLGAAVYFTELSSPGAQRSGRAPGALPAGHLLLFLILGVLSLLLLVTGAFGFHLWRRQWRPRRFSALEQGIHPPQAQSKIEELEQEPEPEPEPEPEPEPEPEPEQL

T2: human LAG-3 (293FF cell line stably transfected with human LAG-3) (human, UniProt P18627 23-525)
T2 construct: whole, on cells; also called huLAG-3; 293FF-huLAG-3
T2 sequence (looked up): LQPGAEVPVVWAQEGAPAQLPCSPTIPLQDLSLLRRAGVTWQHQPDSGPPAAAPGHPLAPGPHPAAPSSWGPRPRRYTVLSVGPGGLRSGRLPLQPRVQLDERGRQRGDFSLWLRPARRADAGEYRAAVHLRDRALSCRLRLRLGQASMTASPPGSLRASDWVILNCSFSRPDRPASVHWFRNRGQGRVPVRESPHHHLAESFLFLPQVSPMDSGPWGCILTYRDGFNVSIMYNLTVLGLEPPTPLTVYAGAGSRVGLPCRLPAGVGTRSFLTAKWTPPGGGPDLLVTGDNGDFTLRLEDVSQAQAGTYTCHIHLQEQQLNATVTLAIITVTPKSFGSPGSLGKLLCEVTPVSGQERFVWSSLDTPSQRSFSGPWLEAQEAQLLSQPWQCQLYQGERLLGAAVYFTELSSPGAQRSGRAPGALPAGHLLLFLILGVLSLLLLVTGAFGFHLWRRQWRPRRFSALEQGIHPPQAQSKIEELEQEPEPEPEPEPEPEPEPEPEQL

T3: rhesus LAG-3 (293FF cell line stably transfected with rhesus LAG-3) (rhesus, UniProt A0A5F8A874 23-533)
T3 construct: whole, on cells; also called reLAG-3; 293FF-reLAG-3
T3 sequence: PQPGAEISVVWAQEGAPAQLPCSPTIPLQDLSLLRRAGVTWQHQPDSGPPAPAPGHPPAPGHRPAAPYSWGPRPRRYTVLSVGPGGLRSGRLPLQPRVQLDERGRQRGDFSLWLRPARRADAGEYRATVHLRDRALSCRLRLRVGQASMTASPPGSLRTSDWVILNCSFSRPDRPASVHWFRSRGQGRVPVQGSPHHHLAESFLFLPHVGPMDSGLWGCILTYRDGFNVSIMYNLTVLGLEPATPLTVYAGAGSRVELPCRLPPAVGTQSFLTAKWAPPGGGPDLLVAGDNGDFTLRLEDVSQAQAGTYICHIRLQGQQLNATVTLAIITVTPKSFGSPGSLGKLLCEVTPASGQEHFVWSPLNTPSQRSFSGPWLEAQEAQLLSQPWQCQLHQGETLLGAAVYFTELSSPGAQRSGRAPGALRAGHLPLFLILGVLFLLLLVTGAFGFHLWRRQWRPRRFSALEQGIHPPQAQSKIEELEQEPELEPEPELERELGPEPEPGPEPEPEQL


Key:
[1] = target: T4, human PD-L1 (CHO-K1 cell line stably transfected with human PD-L1) (human, UniProt Q9NZQ7 19-290); assay: FACS on CHO-K1 cells expressing human PD-L1
T4 construct: whole, on cells; also called huPD-L1; CHO-K1-huPD-L1
T4 sequence (Q9NZQ7 19-290): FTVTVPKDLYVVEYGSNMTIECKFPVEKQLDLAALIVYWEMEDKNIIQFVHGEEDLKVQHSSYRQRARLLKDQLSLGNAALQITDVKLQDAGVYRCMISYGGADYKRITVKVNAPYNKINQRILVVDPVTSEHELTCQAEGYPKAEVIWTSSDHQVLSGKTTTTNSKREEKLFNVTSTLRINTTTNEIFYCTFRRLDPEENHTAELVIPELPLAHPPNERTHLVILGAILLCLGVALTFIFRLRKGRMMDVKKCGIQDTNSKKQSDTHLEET

[2] = target: T5, rhesus PD-L1 (CHO-K1 cell line stably transfected with rhesus PD-L1) (rhesus, UniProt F6VEW6 19-290); assay: FACS on CHO-K1 cells stably expressing rhesus PD-L1, goat-anti-human PE secondary, MFI
T5 construct: whole, on cells

[3] = target: T6, PD-L1 on PD-L1 expressing Raji cells (target cells of the PD-1/LAG-3 reporter assay) (UniProt Q9NZQ7 19-290, limits assumed); assay: cell-based or functional assay
T6 sequence (Q9NZQ7 19-290 limits assumed): as the sequence (Q9NZQ7 19-290) above

[4] = target: T1, LAG-3 on PD-1 and LAG-3 expressing …; assay: cell-based or functional assay
[5] = target: T2, human LAG-3 (293FF cell line stably …); assay: FACS on 293FF cells expressing human LAG-3
[6] = target: T7, cynomolgus monkey LAG-3-His (Sino Biological, Cat nr. 90841-C08H) (cynomolgus monkey); assay: SPR, BIAcore T200, antibody captured by anti-huIgG Fcγ on a CM5 chip, antigen in solution, 1:1 model
T7 construct: also called cynomolgus LAG-3

[7] = target: T3, rhesus LAG-3 (293FF cell line stably …); assay: FACS on 293FF cells stably expressing rhesus LAG-3, goat-anti-human PE secondary, MFI
[8] = target: T6, PD-L1 on PD-L1 expressing Raji cells …; assay: cell-based or functional assay; remark: listed apart in the source
[9] = target: T1, LAG-3 on PD-1 and LAG-3 expressing …; assay: cell-based or functional assay; remark: listed apart in the source
[10] = target: T3, rhesus LAG-3 (293FF cell line stably …); assay: FACS on 293FF-reLAG-3 cells
[11] = target: T2, human LAG-3 (293FF cell line stably …); assay: FACS on 293FF-huLAG-3 cells
[12] = target: T4, human PD-L1 (CHO-K1 cell line stably …); assay: FACS on CHO-K1-huPD-L1 cells

Binder	EC50 [1]	AUC compared to control, PD-1/LAG-3 reporter assay (luciferase) [3]	AUC compared to control, PD-1/LAG-3 reporter assay (luciferase) [4]	EC50 [5]	other results
SEQ ID NO: 1×SEQ ID NO: 23 bispecific antibody (bispecific antibody, Fc-silenced IgG1, monovalent for LAG-3 and for PD-L1; also called PB3; not shown: IgG1 hinge) heavy (part 1 of 2) 1: QVQLQESGPGLVRPSETLSLTCTVSGGSISSYSWSWIRQPPGKGLEWIGYIDYSGSTNYNPSLKSRVTISVDTSKTQFSLKLSSVSAADTAVYYCAKDLLYKWNYVEGFDIWGQGTTVTVSSASTKGPSVFPLAPSSKSTSGGTAALGCLVKDYFPEPVTVSWNSGALTSGVHTFPAVLQSSGLYSLSSVVTVPSSSLGTQTYICNVNHKPSNTKVDKRV heavy (part 2 of 2) 1: not shown heavy (part 1 of 2) 2: not shown heavy (part 2 of 2) 2: not shown light: not shown	0.74 nM	54.8 relative to AUC of positive control	54.8 relative to AUC of positive control	52.1 nM	EC50 (read off the curve) [2]: ~0.05 µg/mL
relatlimab analog (antibody, V domains shown, also called analog of anti-LAG-3 antibody relatlimab) VH: QVQLQQWGAGLLKPSETLSLTCAVYGGSFSDYYWNWIRQPPGKGLEWIGEINHRGSTNSNPSLKSRVTLSLDTSKNQFSLKLRSVTAADTAVYYCAFGYSDYEYNWFDPWGQGTLVTVSS VL: EIVLTQSPATLSLSPGERATLSCRASQSISSYLAWYQQKPGQAPRLLIYDASNRATGIPARFSGSGSGTDFTLTISSLEPEDFAVYYCQQRSNWPLTFGQGTNLEIK	–	–	–	–	Kd [6]: 11.5 nM
SEQ ID NO: 15×SEQ ID NO: 23 bispecific antibody (bispecific antibody, Fc-silenced IgG1, monovalent for LAG-3 and for PD-L1; also called PB59; not shown: IgG1 hinge) heavy (part 1 of 2) 1: QVQLVQSGAEVKKPGASVKVSCKASGYTFTSYGISWVRQAPGQGLEWMGWISAYSGNTNYAQKLQGRVTMTTDTSTSTAYMELRSLRSDDTAVYYCARDGSGWDDFDYWGQGTLVTVSSASTKGPSVFPLAPSSKSTSGGTAALGCLVKDYFPEPVTVSWNSGALTSGVHTFPAVLQSSGLYSLSSVVTVPSSSLGTQTYICNVNHKPSNTKVDKRV heavy (part 2 of 2) 1: not shown heavy (part 1 of 2) 2: not shown heavy (part 2 of 2) 2: not shown light: not shown	2.41 nM	71 relative to AUC of positive control	71 relative to AUC of positive control	113 nM	–
SEQ ID NO: 52×SEQ ID NO: 20 bispecific antibody (bispecific antibody, IgG1; also called PB90; not shown: IgG1 hinge) heavy (part 1 of 2) 1: QVQLQESGPGLVKPSETLSLTCTVSDDSISDYYWSWIRQPPGKGLEWIGYIYYSGNTKYNPSLKNRVTISVDTSKSQFSLKLTSVTAADTAVYYCARIPLTGDFDFWAQGTLVTVSSASTKGPSVFPLAPSSKSTSGGTAALGCLVKDYFPEPVTVSWNSGALTSGVHTFPAVLQSSGLYSLSSVVTVPSSSLGTQTYICNVNHKPSNTKVDKRV heavy (part 2 of 2) 1: not shown heavy (part 1 of 2) 2: not shown heavy (part 2 of 2) 2: not shown light: not shown	–	–	–	–	AUC (% of control), PD-1/LAG-3 reporter assay [8]: 96.9 % of control; EC50, PD-1/LAG-3 reporter assay [8]: 1.15 µg/mL; AUC (% of control), PD-1/LAG-3 reporter assay [9]: 96.9 % of control; EC50, PD-1/LAG-3 reporter assay [9]: 1.15 µg/mL; EC50 [10]: 3.22 µg/mL; EC50 [11]: 1.25 µg/mL; EC50 [12]: 9 ng/mL
SEQ ID NO: 16×SEQ ID NO: 23 bispecific antibody (bispecific antibody, Fc-silenced IgG1, monovalent for LAG-3 and for PD-L1; also called PB63; not shown: IgG1 hinge) heavy (part 1 of 2) 1: QVQLVQSGAEVKKPGASVKVSCKASGYTFTSYGISWVRQAPGQGLEWMGWISAYSGNTNYAQKLQGRVTMTTDTSTSTAYMELRSLRSDDTAVYYCARGSILAAQMWGDIWGQGTLVTVSSASTKGPSVFPLAPSSKSTSGGTAALGCLVKDYFPEPVTVSWNSGALTSGVHTFPAVLQSSGLYSLSSVVTVPSSSLGTQTYICNVNHKPSNTKVDKRV heavy (part 2 of 2) 1: not shown heavy (part 1 of 2) 2: not shown heavy (part 2 of 2) 2: not shown light: not shown	1.01 nM	58.3 relative to AUC of positive control	58.3 relative to AUC of positive control	24.1 nM	–
bivalent monospecific parental LAG-3 antibody SEQ ID NO: 16 (antibody, IgG1, IgG1; not shown: IgG1 hinge) heavy (part 1 of 2): QVQLVQSGAEVKKPGASVKVSCKASGYTFTSYGISWVRQAPGQGLEWMGWISAYSGNTNYAQKLQGRVTMTTDTSTSTAYMELRSLRSDDTAVYYCARGSILAAQMWGDIWGQGTLVTVSSASTKGPSVFPLAPSSKSTSGGTAALGCLVKDYFPEPVTVSWNSGALTSGVHTFPAVLQSSGLYSLSSVVTVPSSSLGTQTYICNVNHKPSNTKVDKRV heavy (part 2 of 2): not shown light: not shown	–	–	–	13.3 nM	–

Continued, in another order:

EC50 [1]	AUC compared to control, PD-1/LAG-3 reporter assay (luciferase) [3]	AUC compared to control, PD-1/LAG-3 reporter assay (luciferase) [4]	EC50 [5]	Binder	other results
–	–	–	0.54 nM	bivalent monospecific parental LAG-3 antibody SEQ ID NO: 1 (antibody, IgG1, IgG1; not shown: IgG1 hinge) heavy (part 1 of 2): QVQLQESGPGLVRPSETLSLTCTVSGGSISSYSWSWIRQPPGKGLEWIGYIDYSGSTNYNPSLKSRVTISVDTSKTQFSLKLSSVSAADTAVYYCAKDLLYKWNYVEGFDIWGQGTTVTVSSASTKGPSVFPLAPSSKSTSGGTAALGCLVKDYFPEPVTVSWNSGALTSGVHTFPAVLQSSGLYSLSSVVTVPSSSLGTQTYICNVNHKPSNTKVDKRV heavy (part 2 of 2): not shown light: not shown	–
–	–	–	0.94 nM	bivalent monospecific parental LAG-3 antibody SEQ ID NO: 15 (antibody, IgG1, IgG1; not shown: IgG1 hinge) heavy (part 1 of 2): QVQLVQSGAEVKKPGASVKVSCKASGYTFTSYGISWVRQAPGQGLEWMGWISAYSGNTNYAQKLQGRVTMTTDTSTSTAYMELRSLRSDDTAVYYCARDGSGWDDFDYWGQGTLVTVSSASTKGPSVFPLAPSSKSTSGGTAALGCLVKDYFPEPVTVSWNSGALTSGVHTFPAVLQSSGLYSLSSVVTVPSSSLGTQTYICNVNHKPSNTKVDKRV heavy (part 2 of 2): not shown light: not shown	EC50 (read off the curve) [7]: ~0.6 µg/mL
1.21 nM	83.9 relative to AUC of positive control	83.9 relative to AUC of positive control	8.64 nM	SEQ ID NO: 5×SEQ ID NO: 23 bispecific antibody (bispecific antibody, Fc-silenced IgG1, monovalent for LAG-3 and for PD-L1; also called PB19; not shown: IgG1 hinge) heavy (part 1 of 2) 1: QVQLQESGPGLVKPSETLSLTCTVSDDSISDYYWSWIRQPPGKGLEWIGYIYYSGNTKYNPSLKNRVTISVDTSKSQFSLKLTSVTAADTAVYYCARIPLTGEFDYWAQGTLVTVSSASTKGPSVFPLAPSSKSTSGGTAALGCLVKDYFPEPVTVSWNSGALTSGVHTFPAVLQSSGLYSLSSVVTVPSSSLGTQTYICNVNHKPSNTKVDKRV heavy (part 2 of 2) 1: not shown heavy (part 1 of 2) 2: not shown heavy (part 2 of 2) 2: not shown light: not shown	–
–	–	–	1.88 nM	bivalent monospecific parental LAG-3 antibody SEQ ID NO: 5 (antibody, IgG1, IgG1; not shown: IgG1 hinge) heavy (part 1 of 2): QVQLQESGPGLVKPSETLSLTCTVSDDSISDYYWSWIRQPPGKGLEWIGYIYYSGNTKYNPSLKNRVTISVDTSKSQFSLKLTSVTAADTAVYYCARIPLTGEFDYWAQGTLVTVSSASTKGPSVFPLAPSSKSTSGGTAALGCLVKDYFPEPVTVSWNSGALTSGVHTFPAVLQSSGLYSLSSVVTVPSSSLGTQTYICNVNHKPSNTKVDKRV heavy (part 2 of 2): not shown light: not shown	–
